PMC8458281, “Computational modeling and experimental validation of the EPI-X4/CXCR4 complex allows rational design of small peptide antagonists” (Communications Biology, 2021)

B1: WSC02 [human] / CXCR4 wt (transfected 293T cells) [human] (parent complex)
chain 1: IVRWSKKVPCVS
chain 2: MEGISIYTSDNYTEEMGSGDYDSMKEPCFREENANFNKIFLPTIYSIIFLTGIVGNGLVILVMGYQKKLRSMTDKYRLHLSVADLLFVITLPFWAVDAVANWYFGNFLCKAVHVIYTVNLYSSVLILAFISLDRYLAIVHATNSQRPRKLLAEKVVYVGVWIPALLLTIPDFIFANVSEADDRYICDRFYPNDLWVVVFQFQHIMVGLILPGIVILSCYCIIISKLSHSKGHQKRKALKTTVILILAFFACWLPYYIGISIDSFILLEIIKQGCEFENTVHKWISITEALAFFHCCLNPILYAFLGAKFKTSAQHALTSVSRGSSLKILSKGKRGGHSSVSTESESSSFHSS
B2: EPI-X4 JM#21 [human] / CXCR4 wt (transfected 293T cells) [human] (parent complex)
chain 1: ILRWSRKLPCVS
chain 2: B1 chain 2

Variants of: B1
Assay: 12G5 antibody competition assay, flow cytometry on transfected 293T cells; 2 h incubation; IC50 set to 1000 µM if above the maximally used concentration; parent: 1e+03 nM; read off a plot

IC50 [µM]	Variant
~1.7	chain 2 MEGISIYTSDNYTEEMGSGDYDSMKEPCFREENANFNKIFLPTIYSIIFLTGIVGNGLVILVMGYQKKLRSMTDKYRLHLSVADLLFVITLPFWAVEAVANWYFGNFLCKALHVIYTVNLYSSVLILAFISLDRYLAIVHATNSQRPRKLLAEKVVYVGVWIPALLLTIPDFIFANVSEADDRYICDRFYPNDLWVVVFQFQHIMVGLILPGIVILSCYCIIISKLSHSKGHQKRKALKTTVILILAFFACWLPYYIGISIDSFILLEIIKQGCEFENTVHKWISITEALAFFHCCLNPILYAFLGAKFKTSAQHALTSVSRGSSLKILSKGKRGGHSSVSTESESSSFHSS [chain 2 D97E, chain 2 V112L]
~1.7	chain 2 MEGISIYTSDNYTEEMGSGDYDSMKEPCFREENANFNKIFLPTIYSIIFLTGIVGNGLVILVMGYQKKLRSMTDKYRLHLSVADLLFVITLPFWAVEAVANWYFGNFLCKAAHVIYTVNLYSSVLILAFISLDRYLAIVHATNSQRPRKLLAEKVVYVGVWIPALLLTIPDFIFANVSEADDRYICDRFYPNDLWVVVFQFQHIMVGLILPGIVILSCYCIIISKLSHSKGHQKRKALKTTVILILAFFACWLPYYIGISIDSFILLEIIKQGCEFENTVHKWISITEALAFFHCCLNPILYAFLGAKFKTSAQHALTSVSRGSSLKILSKGKRGGHSSVSTESESSSFHSS [chain 2 D97E, chain 2 V112A]
~0.45	chain 2 MEGISIYTSDNYTEEMGSGDYDSMKEPCFREENANFNKIFLPTIYSIIFLTGIVGNGLVILVMGYQKKLRSMTDKYRLHLSVADLLFVITLPFWAVDAVANWYFGNFLCKAVHVIYTVNLYSSVLILAFISLDRYLAIVHATNSQRPRKLLAEKVVYVGVWIPALLLTIPDFIFANVSEADDRYICDRFYPNDLWVVVFQFQHIMVGLILPGIVILSCYCIIISKLSHSKGHQKRKALKTTVILILAFFACWLPYYIGISIASFILLEIIKQGCEFENTVHKWISITEALAFFHCCLNPILYAFLGAKFKTSAQHALTSVSRGSSLKILSKGKRGGHSSVSTESESSSFHSS [chain 2 D262A]
~30	chain 2 MEGISIYTSDNYTEEMGSGDYDSMKEPCFREENANFNKIFLPTIYSIIFLTGIVGNGLVILVMGYQKKLRSMTDKYRLHLSVADLLFVITLPFWAVTAVANWYFGNFLCKAVHVIYTVNLYSSVLILAFISLDRYLAIVHATNSQRPRKLLAEKVVYVGVWIPALLLTIPDFIFANVSEADDRYICDRFYPNDLWVVVFQFQHIMVGLILPGIVILSCYCIIISKLSHSKGHQKRKALKTTVILILAFFACWLPYYIGISIDSFILLEIIKQGCEFENTVHKWISITEALAFFHCCLNPILYAFLGAKFKTSAQHALTSVSRGSSLKILSKGKRGGHSSVSTESESSSFHSS [chain 2 D97T]

Variants of: B2
Assay: 12G5 antibody competition assay, flow cytometry on transfected 293T cells; 2 h incubation; IC50 set to 100 µM if above the maximally used concentration; parent: 620 nM; read off a plot

Variant	IC50 [µM]
chain 2 MEGISIYTSDNYTEEMGSGDYDSMKEPCFREENANFNKIFAPTIYSIIFLTGIVGNGLVILVMGYQKKLRSMTDKYRLHLSVADLLFVITLPFWAVDAVANWYFGNFLCKAAHVIYTVNLYSSVLILAFISLDRYLAIVHATNSQRPRKLLAEKVVYVGVWIPALLLTIPDFIFANVSEADDRYICDRFYPNDLWVVVFQFQHIMVGLILPGIVILSCYCIIISKLSHSKGHQKRKALKTTVILILAFFACWLPYYIGISIDSFILLEIIKQGCEFENTVHKWISITEALAFFHCCLNPILYAFLGAKFKTSAQHALTSVSRGSSLKILSKGKRGGHSSVSTESESSSFHSS [chain 2 L41A, chain 2 V112A]	~0.63
chain 2 MEGISIYTSDNYTEEMGSGDYDSMKEPCFREENANFNKIFLPTIYSIIFLTGIVGNGLVILVMGYQKKLRSMTDKYRLHLSVADLLFVITLPFWAVSAVANWYFGNFLCKAVHVIYTVNLYSSVLILAFISLDRYLAIVHATNSQRPRKLLAEKVVYVGVWIPALLLTIPDFIFANVSEADDRYICDRFYPNDLWVVVFQFQHIMVGLILPGIVILSCYCIIISKLSHSKGHQKRKALKTTVILILAFFACWLPYYIGISIDSFILLEIIKQGCEFENTVHKWISITEALAFFHCCLNPILYAFLGAKFKTSAQHALTSVSRGSSLKILSKGKRGGHSSVSTESESSSFHSS [chain 2 D97S]	~5.4
chain 2 MEGISIYTSDNYTEEMGSGDYDSMKEPCFREENANFNKIFLPTIYSIIFLTGIVGNGLVILVMGYQKKLRSMTDKYRLHLSVADLLFVITLPFWAVQAVANWYFGNFLCKAVHVIYTVNLYSSVLILAFISLDRYLAIVHATNSQRPRKLLAEKVVYVGVWIPALLLTIPDFIFANVSEADDRYICDRFYPNDLWVVVFQFQHIMVGLILPGIVILSCYCIIISKLSHSKGHQKRKALKTTVILILAFFACWLPYYIGISIDSFILLEIIKQGCEFENTVHKWISITEALAFFHCCLNPILYAFLGAKFKTSAQHALTSVSRGSSLKILSKGKRGGHSSVSTESESSSFHSS [chain 2 D97Q]	~8
chain 2 MEGISIYTSDNYTEEMGSGDYDSMKEPCFREENANFNKIFLPTIYSIIFLTGIVGNGLVILVMGYQKKLRSMTDKYRLHLSVADLLFVITLPFWAVDAVANWYFGNFLCKALHVIYTVNLYSSVLILAFISLDRYLAIVHATNSQRPRKLLAEKVVYVGVWIPALLLTIPDFIFANVSEADDRYICDRFYPNDLWVVVFQFQHIMVGLILPGIVILSCYCIIISKLSHSKGHQKRKALKTTVILILAFFACWLPYYIGISIDSFILLEIIKQGCEFENTVHKWISITEALAFFHCCLNPILYAFLGAKFKTSAQHALTSVSRGSSLKILSKGKRGGHSSVSTESESSSFHSS [chain 2 V112L]	~0.4
chain 2 MEGISIYTSDNYTEEMGSGDYDSMKEPCFREENANFNKIFLPTIYSIIFLTGIVGNGLVILVMGYQKKLRSMTDKYRLHLSVADLLFVITLPFWAVDAVANWYFGNFLCKAAHVIYTVNLYSSVLILAFISLDRYLAIVHATNSQRPRKLLAEKVVYVGVWIPALLLTIPDFIFANVSEADDRYICDRFYPNDLWVVVFQFQHIMVGLILPGIVILSCYCIIISKLSHSKGHQKRKALKTTVILILAFFACWLPYYIGISIDSFILLEIIKQGCEFENTVHKWISITEALAFFHCCLNPILYAFLGAKFKTSAQHALTSVSRGSSLKILSKGKRGGHSSVSTESESSSFHSS [chain 2 V112A]	~3.4
chain 2 MEGISIYTSDNYTEEMGSGDYDSMKEPCFREENANFNKIFLPTIYSIIFLTGIVGNGLVILVMGYQKKLRSMTDKYRLHLSVADLLFVITLPFWAVEAVANWYFGNFLCKAAHVIYTVNLYSSVLILAFISLDRYLAIVHATNSQRPRKLLAEKVVYVGVWIPALLLTIPDFIFANVSEADDRYICDRFYPNDLWVVVFQFQHIMVGLILPGIVILSCYCIIISKLSHSKGHQKRKALKTTVILILAFFACWLPYYIGISIDSFILLEIIKQGCEFENTVHKWISITEALAFFHCCLNPILYAFLGAKFKTSAQHALTSVSRGSSLKILSKGKRGGHSSVSTESESSSFHSS [chain 2 D97E, chain 2 V112A]	~0.46

Next, values leading:

IC50 [µM]	Variant
~1.8	chain 2 MEGISIYTSDNYTEEMGSGDYDSMKEPCFREENANFNKIFLPTIYSIIFLTGIVGNGLVILVMGYQKKLRSMTDKYRLHLSVADLLFVITLPFWAVEAVANWYFGNFLCKAVHVIYTVNLYSSVLILAFISLDRYLAIVHATNSQRPRKLLAEKVVYVGVWIPALLLTIPDFIFANVSEADDRYICDRFYPNDLWVVVFQFQHIMVGLILPGIVILSCYCIIISKLSHSKGHQKRKALKTTVILILAFFACWLPYYIGISIDSFILLEIIKQGCEFENTVHKWISITEALAFFHCCLNPILYAFLGAKFKTSAQHALTSVSRGSSLKILSKGKRGGHSSVSTESESSSFHSS [chain 2 D97E]
~3.7	chain 2 MEGISIYTSDNYTEEMGSGDYDSMKEPCFREENANFNKIFLPTIYSIIFLTGIVGNGLVILVMGYQKKLRSMTDKYRLHLSVADLLFVITLPFWAVTAVANWYFGNFLCKAVHVIYTVNLYSSVLILAFISLDRYLAIVHATNSQRPRKLLAEKVVYVGVWIPALLLTIPDFIFANVSEADDRYICDRFYPNDLWVVVFQFQHIMVGLILPGIVILSCYCIIISKLSHSKGHQKRKALKTTVILILAFFACWLPYYIGISIDSFILLEIIKQGCEFENTVHKWISITEALAFFHCCLNPILYAFLGAKFKTSAQHALTSVSRGSSLKILSKGKRGGHSSVSTESESSSFHSS [chain 2 D97T]
~0.27	chain 2 MEGISIYTSDNYTEEMGSGDYDSMKEPCFREENANFNKIFLPTIYSIIFLTGIVGNGLVILVMGYQKKLRSMTDKYRLHLSVADLLFVITLPFWAVDAVANWYFGNFLCKAVHVIYTVNLYSSVLILAFISLDRYLAIVHATNSQRPRKLLAEKVVYVGVWIPALLLTIPDFIFANVSEADDRYICDRFYPNDLWVVVFQFQHIMVGLILPGIVILSCYCIIISKLSHSKGHQKRKALKTTVILILAFFACWLPYYIGISIDSFILLEIIKQGCEFANTVHKWISITEALAFFHCCLNPILYAFLGAKFKTSAQHALTSVSRGSSLKILSKGKRGGHSSVSTESESSSFHSS [chain 2 E277A]
~0.65	chain 2 MEGISIYTSDNYTEEMGSGDYDSMKEPCFREENANFNKIFAPTIYSIIFLTGIVGNGLVILVMGYQKKLRSMTDKYRLHLSVADLLFVITLPFWAVDAVANWYFGNFLCKAVHVIYTVNLYSSVLILAFISLDRYLAIVHATNSQRPRKLLAEKVVYVGVWIPALLLTIPDFIFANVSEADDRYICDRFYPNDLWVVVFQFQHIMVGLILPGIVILSCYCIIISKLSHSKGHQKRKALKTTVILILAFFACWLPYYIGISIDSFILLEIIKQGCEFENTVHKWISITEALAFFHCCLNPILYAFLGAKFKTSAQHALTSVSRGSSLKILSKGKRGGHSSVSTESESSSFHSS [chain 2 L41A]
~0.38	chain 2 MEGISIYTSDNYTEEMGSGDYDSMKEPCFREENANFNKIFLPTIYSIIFLTGIVGNGLVILVMGYQKKLRSMTDKYRLHLSVADLLFVITLPFWAVEAVANWYFGNFLCKALHVIYTVNLYSSVLILAFISLDRYLAIVHATNSQRPRKLLAEKVVYVGVWIPALLLTIPDFIFANVSEADDRYICDRFYPNDLWVVVFQFQHIMVGLILPGIVILSCYCIIISKLSHSKGHQKRKALKTTVILILAFFACWLPYYIGISIDSFILLEIIKQGCEFENTVHKWISITEALAFFHCCLNPILYAFLGAKFKTSAQHALTSVSRGSSLKILSKGKRGGHSSVSTESESSSFHSS [chain 2 D97E, chain 2 V112L]
~0.22	chain 2 MEGISIYTSDNYTEEMGSGDYDSMKEPCFREENANFNKIFLPTIYSIIFLTGIVGNGLVILVMGYQKKLRSMTDKYRLHLSVADLLFVITLPFWAVDAVANWYFGNFLCKAVHVIYTVNLYSSVLILAFISLDRYLAIVHATNSQRPRKLLAEKVVYVGVWIPALLLTIPDFIFANVSEADDRYICDRFYPNDLWVVVFQFQHIMVGLILPGIVILSCYCIIISKLSHSKGHQKRKALKTTVILILAFFACWLPYYIGISIASFILLEIIKQGCEFENTVHKWISITEALAFFHCCLNPILYAFLGAKFKTSAQHALTSVSRGSSLKILSKGKRGGHSSVSTESESSSFHSS [chain 2 D262A]
